T1: biotinylated IL-2 receptor beta gamma heterodimer Fc (IL-2RBG; Acro ILG-H5254) (UniProt P14784 27-239; P31785 23-262, biotinylated)
T1 construct: bought heterodimer
T1 sequence (looked up) 1: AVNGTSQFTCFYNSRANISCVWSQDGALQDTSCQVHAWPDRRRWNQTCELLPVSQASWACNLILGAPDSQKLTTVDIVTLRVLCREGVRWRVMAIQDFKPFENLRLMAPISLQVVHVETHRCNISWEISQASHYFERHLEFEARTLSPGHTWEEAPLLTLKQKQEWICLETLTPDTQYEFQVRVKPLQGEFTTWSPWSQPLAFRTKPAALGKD
T1 sequence (looked up) 2: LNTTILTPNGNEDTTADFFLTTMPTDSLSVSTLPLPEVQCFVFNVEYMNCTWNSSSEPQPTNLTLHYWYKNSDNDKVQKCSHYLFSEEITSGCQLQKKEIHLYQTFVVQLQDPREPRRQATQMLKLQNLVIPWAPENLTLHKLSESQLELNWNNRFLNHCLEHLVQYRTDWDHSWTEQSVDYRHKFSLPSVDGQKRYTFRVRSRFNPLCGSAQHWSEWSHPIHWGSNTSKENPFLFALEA


Molecular target: T1, biotinylated IL-2 receptor beta gamma …
Experiment: ELISA, captured complex, biotin-IL-2RBG 10 nM, PD-1 Fc titrated
Description: The DBA-cytokine complexes and control antibody-cytokine complexes were produced in two formats: (1) “Symmetric” immunocytokine (shown in FIG. 2E); or (2) “Asymmetric” immunocytokine (shown in FIG. 2B) by expression in mammalian cells and purified using standard protocols. […] To perform the assay, 384-well ELISA plates were coated with anti-Fc antibody at 1 micrograms/ml in 100 mM bicarbonate solution pH 9.0 overnight at 4° C. and washed twice with SUPERBLOCK™. Antibody-cytokine complexes were then added to each well at a constant concentration of 6 nM and allowed to incubate for 1 hour and washed three times in PBS plus 0.05% TWEEN® 20 (PBST). Titrated concentrations of PD-1 Fc or an IgG1 control Fc were added and allowed to incubate for 15 minutes before the addition of a constant amount of biotinylated IL-2RBG at 10 nM. The plates were incubated for an additional 30 minutes, washed and biotinylated IL-2RBG detection was performed using streptavidin-HRP and standard ELISA protocols.

Row | Binder | binding result
1 | AF003951 (other, also called AF3951) heavy 1: APASSSTKKTQLQLEHLLLDLQMILNGINNYKNPKLTRMLTAKFAMPKKATELKHLQCLEEELKPLEEVLNGAQSKNFHLRPRDLISNINVIVLELKGSETTFMCEYADETATIVEFLNRWITFAQSIISTLTGGGGSGGGGSGGGGSGGGGSQVQLVQSGAEVKKPGASVKVSCKASGYTFTDYYMHWVRQAPGQGLEWMGIINPRAGYTSYALKFQGRVTMTRDTSTSTVYMELSSLRSEDTAVYYCTSGWDVWGQGTLVTVSSAKTTAPSVYPLAPVCGDTTGSSVTLGCLVKGYFPEPVTLTWNSGSLSSGVHTFPAVLQSDLYTLSSSVTVTSSTWPSQSITCNVAHPASSTKVDKKIEPRGPTIKPCPPCKCPAPNAAGGPSVFIFPPKIKDVLMISLSPIVTCVVVDVSEDDPDVQISWFVNNVEVHTAQTQTHREDYNSTLRVVSALPIQHQDWMSGKEFKCKVNNKDLGAPIERTISKPKGSVRAPQVYVLPPPEEEMTKKQVTLTCMVTDFMPEDIYVEWTNNGKTELNYKNTEPVLDSDGSYFMYSDLRVEKKNWVERNSYSCSVVHEGLHNHHTTESFSRTPGK heavy 2: QVQLVQSGAEVKKPGASVKVSCKASGYTFTDYYMHWVRQAPGQGLEWMGIINPRAGYTSYALKFQGRVTMTRDTSTSTVYMELSSLRSEDTAVYYCTSGWDVWGQGTLVTVSSAKTTAPSVYPLAPVCGDTTGSSVTLGCLVKGYFPEPVTLTWNSGSLSSGVHTFPAVLQSDLYTLSSSVTVTSSTWPSQSITCNVAHPASSTKVDKKIEPRGPTIKPCPPCKCPAPNAAGGPSVFIFPPKIKDVLMISLSPIVTCVVVDVSEDDPDVQISWFVNNVEVHTAQTQTHREDYNSTLRVVSALPIQHQDWMSGKEFKCKVNNKDLGAPIERTISKPKGSVRAPQVYVLPPPEKEMTKKQVSLTCLVKDFMPEDIYVEWTNNGKTELNYKNTEPVLKSDGSYFMYSKLTVEKKNWVERNSYSCSVVHEGLHNHHTTKSFSRTPGGGGSGGGSHHHHHH light: DIQMTQSPSSLSASVGDRVTITCRASQSISTWLAWYQQKPGKAPKLLIYAASSLDSGVPSRFSGSGSGTDFTLTISSLQPEDFATYYCQQSYSFPVTFGQGTKVEIKRADAAPTVSIFPPSSEQLTSGGASVVCFLNNFYPKDINVKWKIDGSERQNGVLNSWTDQDSKDSTYSMSSTLTLTKDEYERHNSYTCEATHKTSTSPIVKSFNRNEC | binds
2 | AF003952 (other, also called AF3952) heavy 1: APASSSTKKTQLQLEHLLLDLQMILNGINNYKNPKLTRMLTAKFAMPKKATELKHLQCLEEELKPLEEVLNGAQSKNFHLRPRDLISNINVIVLELKGSETTFMCEYADETATIVEFLNRWITFAQSIISTLTGGGGSGGGGSGGGGSGGGGSQVQLVQSGAEVKKPGASVKVSCKASGYTFTRYYMHWVRQAPGQGLEWMGIINPRAGYTSYALKFQGRVTMTRDTSTSTVYMELSSLRSEDTAVYYCTSGWDVWGQGTLVTVSSAKTTAPSVYPLAPVCGDTTGSSVTLGCLVKGYFPEPVTLTWNSGSLSSGVHTFPAVLQSDLYTLSSSVTVTSSTWPSQSITCNVAHPASSTKVDKKIEPRGPTIKPCPPCKCPAPNAAGGPSVFIFPPKIKDVLMISLSPIVTCVVVDVSEDDPDVQISWFVNNVEVHTAQTQTHREDYNSTLRVVSALPIQHQDWMSGKEFKCKVNNKDLGAPIERTISKPKGSVRAPQVYVLPPPEEEMTKKQVTLTCMVTDFMPEDIYVEWTNNGKTELNYKNTEPVLDSDGSYFMYSDLRVEKKNWVERNSYSCSVVHEGLHNHHTTESFSRTPGK heavy 2: QVQLVQSGAEVKKPGASVKVSCKASGYTFTRYYMHWVRQAPGQGLEWMGIINPRAGYTSYALKFQGRVTMTRDTSTSTVYMELSSLRSEDTAVYYCTSGWDVWGQGTLVTVSSAKTTAPSVYPLAPVCGDTTGSSVTLGCLVKGYFPEPVTLTWNSGSLSSGVHTFPAVLQSDLYTLSSSVTVTSSTWPSQSITCNVAHPASSTKVDKKIEPRGPTIKPCPPCKCPAPNAAGGPSVFIFPPKIKDVLMISLSPIVTCVVVDVSEDDPDVQISWFVNNVEVHTAQTQTHREDYNSTLRVVSALPIQHQDWMSGKEFKCKVNNKDLGAPIERTISKPKGSVRAPQVYVLPPPEKEMTKKQVSLTCLVKDFMPEDIYVEWTNNGKTELNYKNTEPVLKSDGSYFMYSKLTVEKKNWVERNSYSCSVVHEGLHNHHTTKSFSRTPGGGGSGGGSHHHHHH light: DIQMTQSPSSLSASVGDRVTITCRASQSISTWLAWYQQKPGKAPKLLIYAASSLDSGVPSRFSGSGSGTDFTLTISSLQPEDFATYYCQQSYSFPVTFGQGTKVEIKRADAAPTVSIFPPSSEQLTSGGASVVCFLNNFYPKDINVKWKIDGSERQNGVLNSWTDQDSKDSTYSMSSTLTLTKDEYERHNSYTCEATHKTSTSPIVKSFNRNEC | binds

Results, then the binder that gave them:

Row | binding result | Binder
3 | binds | AF003953 (other, also called AF3953) heavy 1: APASSSTKKTQLQLEHLLLDLQMILNGINNYKNPKLTRMLTAKFAMPKKATELKHLQCLEEELKPLEEVLNGAQSKNFHLRPRDLISNINVIVLELKGSETTFMCEYADETATIVEFLNRWITFAQSIISTLTGGGGSGGGGSGGGGSGGGGSQVQLVQSGAEVKKPGASVKVSCKASGYTFTTYYMHWVRQAPGQGLEWMGIINPRAGYTSYALKFQGRVTMTRDTSTSTVYMELSSLRSEDTAVYYCTSGWDVWGQGTLVTVSSAKTTAPSVYPLAPVCGDTTGSSVTLGCLVKGYFPEPVTLTWNSGSLSSGVHTFPAVLQSDLYTLSSSVTVTSSTWPSQSITCNVAHPASSTKVDKKIEPRGPTIKPCPPCKCPAPNAAGGPSVFIFPPKIKDVLMISLSPIVTCVVVDVSEDDPDVQISWFVNNVEVHTAQTQTHREDYNSTLRVVSALPIQHQDWMSGKEFKCKVNNKDLGAPIERTISKPKGSVRAPQVYVLPPPEEEMTKKQVTLTCMVTDFMPEDIYVEWTNNGKTELNYKNTEPVLDSDGSYFMYSDLRVEKKNWVERNSYSCSVVHEGLHNHHTTESFSRTPGK heavy 2: QVQLVQSGAEVKKPGASVKVSCKASGYTFTTYYMHWVRQAPGQGLEWMGIINPRAGYTSYALKFQGRVTMTRDTSTSTVYMELSSLRSEDTAVYYCTSGWDVWGQGTLVTVSSAKTTAPSVYPLAPVCGDTTGSSVTLGCLVKGYFPEPVTLTWNSGSLSSGVHTFPAVLQSDLYTLSSSVTVTSSTWPSQSITCNVAHPASSTKVDKKIEPRGPTIKPCPPCKCPAPNAAGGPSVFIFPPKIKDVLMISLSPIVTCVVVDVSEDDPDVQISWFVNNVEVHTAQTQTHREDYNSTLRVVSALPIQHQDWMSGKEFKCKVNNKDLGAPIERTISKPKGSVRAPQVYVLPPPEKEMTKKQVSLTCLVKDFMPEDIYVEWTNNGKTELNYKNTEPVLKSDGSYFMYSKLTVEKKNWVERNSYSCSVVHEGLHNHHTTKSFSRTPGGGGSGGGSHHHHHH light: DIQMTQSPSSLSASVGDRVTITCRASQSISTWLAWYQQKPGKAPKLLIYAASSLDSGVPSRFSGSGSGTDFTLTISSLQPEDFATYYCQQSYSFPVTFGQGTKVEIKRADAAPTVSIFPPSSEQLTSGGASVVCFLNNFYPKDINVKWKIDGSERQNGVLNSWTDQDSKDSTYSMSSTLTLTKDEYERHNSYTCEATHKTSTSPIVKSFNRNEC
4 | binds | AF003956 (other, also called AF3956) heavy 1: APASSSTKKTQLQLEHLLLDLQMILNGINNYKNPKLTRMLTAKFAMPKKATELKHLQCLEEELKPLEEVLNGAQSKNFHLRPRDLISNINVIVLELKGSETTFMCEYADETATIVEFLNRWITFAQSIISTLTGGGGSGGGGSGGGGSGGGGSQVQLVQSGAEVKKPGASVKVSCKASGYTFTDYYMHWVRQAPGQGLEWMGIINPRAGYTSYALKFQGRVTMTRDTSTSTVYMELSSLRSEDTAVYYCTSGWDVWGQGTLVTVSSAKTTAPSVYPLAPVCGDTTGSSVTLGCLVKGYFPEPVTLTWNSGSLSSGVHTFPAVLQSDLYTLSSSVTVTSSTWPSQSITCNVAHPASSTKVDKKIEPRGPTIKPCPPCKCPAPNAAGGPSVFIFPPKIKDVLMISLSPIVTCVVVDVSEDDPDVQISWFVNNVEVHTAQTQTHREDYNSTLRVVSALPIQHQDWMSGKEFKCKVNNKDLGAPIERTISKPKGSVRAPQVYVLPPPEEEMTKKQVTLTCMVTDFMPEDIYVEWTNNGKTELNYKNTEPVLDSDGSYFMYSDLRVEKKNWVERNSYSCSVVHEGLHNHHTTESFSRTPGK heavy 2: QVQLVQSGAEVKKPGASVKVSCKASGYTFTDYYMHWVRQAPGQGLEWMGIINPRAGYTSYALKFQGRVTMTRDTSTSTVYMELSSLRSEDTAVYYCTSGWDVWGQGTLVTVSSAKTTAPSVYPLAPVCGDTTGSSVTLGCLVKGYFPEPVTLTWNSGSLSSGVHTFPAVLQSDLYTLSSSVTVTSSTWPSQSITCNVAHPASSTKVDKKIEPRGPTIKPCPPCKCPAPNAAGGPSVFIFPPKIKDVLMISLSPIVTCVVVDVSEDDPDVQISWFVNNVEVHTAQTQTHREDYNSTLRVVSALPIQHQDWMSGKEFKCKVNNKDLGAPIERTISKPKGSVRAPQVYVLPPPEKEMTKKQVSLTCLVKDFMPEDIYVEWTNNGKTELNYKNTEPVLKSDGSYFMYSKLTVEKKNWVERNSYSCSVVHEGLHNHHTTKSFSRTPGGGGSGGGSHHHHHH light: DIQMTQSPSSLSASVGDRVTITCRASQSISTWLAWYQQKPGKAPKLLIYAASSLDSGVPSRFSGSGSGTDFTLTISSLQPEDFATYYCQQSYRFPVTFGQGTKVEIKRADAAPTVSIFPPSSEQLTSGGASVVCFLNNFYPKDINVKWKIDGSERQNGVLNSWTDQDSKDSTYSMSSTLTLTKDEYERHNSYTCEATHKTSTSPIVKSFNRNEC
